Measurements from patent US20040157248.

Experiments:
[1] = molecular target: RecAΔC17 (Escherichia coli) (UniProt P0A7G6); details: ATPase rate without SSB relative to with SSB, 10 mM Mg
[2] = molecular target: RecA wild-type (Escherichia coli) (UniProt P0A7G6); details: ATPase rate without SSB relative to with SSB, 10 mM Mg
[3] = molecular target: RecA E38K/ΔC17 (Escherichia coli) (UniProt P0A7G6); details: apparent kcat of ATP hydrolysis with SSB-prebound poly(dT); no lag; higher with SSB than without
[4] = molecular target: RecA wild-type (Escherichia coli) (UniProt P0A7G6); details: salt titration midpoint by DNA-dependent ATPase, no SSB, 37 C; value is NaCl at half-maximal ATPase
[5] = molecular target: RecAΔC17 (Escherichia coli) (UniProt P0A7G6); details: salt titration midpoint by DNA-dependent ATPase, no SSB, 37 C; value is NaCl at half-maximal ATPase

Row | Substance | relative ATPase rate [1] | relative ATPase rate [2] | activity [3] | K half [4] | K half [5]
1 | M13mp8 circular ssDNA | 84% | 30% |  |  | 
2 | poly(dT) |  |  | > 20 min⁻¹ | 750 mM NaCl | 700 mM NaCl
